From PMC4450493, “Binding of undamaged double stranded DNA to vaccinia virus uracil-DNA Glycosylase”

Target: D4 (vaccinia virus uracil-DNA glycosylase, tfD4) (Vaccinia virus, UniProt P04303 1-218)
Assay: X-ray crystallography (2.89 A); undamaged DNA without uracil; glycerol in active sites; no A20
Conditions: protein: recombinant; tags: His6 tag cleaved; three vector-encoded residues GSH remain at N-terminus; chain copies: 2; blunt; palindromic, two copies of the same strand

B1: self-complementary 12mer dsDNA (dsDNA)
DNA 1: GCAAACGTTTGC
DNA 2: GCAAACGTTTGC
  binding result: binds
